Experimental findings from doi:10.1101/2020.10.06.328377 are described below.

Experiment [1] addresses MsSepF_(core) (Methanobrevibacter smithii SepF, C-terminal FtsZ-binding core, amino acids 54 to 149) (Methanobrevibacter smithii).
For experiment [2] the target is unchanged. Put plainly: thermal shift assay.

By stoichiometry N is commonly meant the number of molecules, sites or subunits per partner or assembly. “MsSepF_(core) (Methanobrevibacter smithii SepF, C-terminal FtsZ-binding core, amino acids 54 to 149) (domain or fragment)”: the stoichiometry N in experiment [1] was 2.
As to NEDQLDDFIDGIF [FtsZCTD peptide (C-terminal domain of M. smithii FtsZ)], the melting temperature of MsSepFcore upon addition of MsFtsZCTD (70.6 °C without) in experiment [2] came to 82.3 °C.
